The series can be described thus: label from the status in PepcDB records.
“MVFLKRFRAYGFKSYADEITINFTHSMTGIVGPNGSGKSNVVDALKWVLGERSMKHLRSKSGDDMIFFGSKDKPASKLAEVELTFDNSQKLLHDPRPEISVMRRIYRGSGQSEYYINGELVTLKEISGIFADIGLEKGSLGIISQGSVSFVEAKPEERRKIFEDASGIGRYTKRKEEVTNQLARTVQNLKQVSIVLNELKKDLKKLTIQADKAQRFVKLKEELKELELSVLVADYLKSQGELDRFNHQIGYIEQDFKLHEPQLQLLEDQLNIFNQRFRDADEQSIKLQQELQAVYQTINELEQRKAVIDVQLKNELSKKDEKHKIQALKKLIRVDQAQLESLQAQVLKTTSEITLLTNELSTVQTELDTTKLNLNQNSAALVYQQAQQEFLKAQNEEWVKTNPAHVLVKNVKALTGLLNTLNTFLKFEKQYEKALLKALGKSIGYLVVNNNLAALKAIDFLLTNQIGQVTFLPIDDIAFDTKIAPEHMEILQQLDGFLGVGSDHVSCDESLQPIVNALLGQVIIASDLQAALKLSSYTYKLYRVVTLNGETVYAGGIIQGGYVKDNLSLYNLQEKLASSEANITQLEHNEKQLRTNLTSLETKLNELNKKLKYEEILLEKFNERVNHTNKAILSYKIEYEQLTNESFDGTPHSFDETRLVESLNRAWAERDELNSQLKLNQELKETLAKSIKLAEAKTADLRALLDEQRSQLVLAREGKIRFENTIHNITDKINGGYKLTMEFAIANYNKPIKLSTMQAQNKIARMQSQLDEMGPINLESIAEIADKQKRFDDINGEYESLQTAIKDLQTAIGEIDELACKEFDELIQKVNAELPKTFNYLFGGGSCQIRYTDTDNVLLSGIEVFANPPGKNVANLMLLSGGEKTLVALSVLFSILRVSAFPLVILDEAESALDPANVERFANIIGNSSNNTQFLIITHRQGTMMKCDMLLGAAMQTKGVTKTFAVSLEKAEQYISKDKQN”: the protein production result is “failed”.

“MNRLCVLGLLIGLSGSPALAAGQGESGNPPATDKERFIASLMARMSNAEKIGQLRLVSVGADHPKEALMADIRAGKVGAIFNTVTRPDIRAMQDQVRHSRLKIPLFHAYDVAHGHRTIFPISLGLAASWDPEVVARSARISALEASADGLDMSFSPMVDITRDARWGRVSEGFGEDTYLTSLLSGVMVRAYQGSNLAAPDSIMAAVKHFALYGAAEGGRDYNTVDMSLPRMFQDYLPPYKAAVDAGAGAVMVSLNTINGVPATANRWLLTDLLRQQWGFKGLTISDHGAVKELIKHGLAGNERDATRLAIQAGVDMNMNDDLYSTWLPKLLAAGEIDQADIDRACRDVLAAKYDLGLFADPYRRLGK”: the protein production entry is “failed”.

In the case of “MKKRAIVAVIVLLLIGLDQLVKSYIVQQIPLGEVRSWIPNFVSLTYLQNRGAAFSILQDQQLLFAVITLVVVIGAIWYLHKHMEDSFWMVLGLTLIIAGGLGNFIDRVSQGFVVDMFHLDFINFAIFNVADSYLTVGVIILLIAMLKEEINGN”, the protein production result is reported as “failed”.

For “MFTINTKSQLPIYEQIVQKIKEQVVKGILQEGEKILSIREFASRIGVNPNTVSKAYQELERQEVIVTVKGKGTFIADQTEKNSSPKKLAETKIKLKEIILDLVYLGINVEEIHKLSVEYSQDIIGGDKI”, the protein production entry is on record as “failed”.

In the case of “MIITIPIKNQKDIGTPSDSVVVLGYFDGIHKGHQELFRVANKAARKDLLPIVVMTFNESPKIALEPYHPDLFLHILNPAERERKLKREGVEELYLLDFSSQFASLTAQEFFATYIKAMNAKIIVAGFDYTFGSDKKTAEDLKNYFDGEVIIVPPVEDEKGKISSTRIRQAILDGNVKEAGKLLGAPLPSRGMVVHGNARGRTIGYPTANLVLLDRTYMPADGVYVVDVEIQRQKYRAMASVGKNVTFDGEEARFEVNIFDFNQDIYGETVMVYWLDRIRDMTKFDSVDQLVDQLKADEEVTRNWS”, the protein production entry was “not failed”.

Turning to “MDGSNVTSFVVEEPTNISTGRNASVGNAHRQIPIVHWVIMSISPVGFVENGILLWFLCFRMRRNPFTVYITHLSIADISLLFCIFILSIDYALDYELSSGHYYTIVTLSVTFLFGYNTGLYLLTAISVERCLSVLYPIWYRCHRPKYQSALVCALLWALSCLVTTMEYVMCIDREEESHSRNDCRAVIIFIAILSFLVFTPLMLVSSTILVVKIRKNTWASHSSKLYIVIMVTIIIFLIFAMPMRLLYLLYYEYWSTFGNLHHISLLFSTINSSANPFIYFFVGSSKKKRFKESLKVVLTRAFKDEMQPRRQKDNCNTVTVETVV”, the protein production entry is on record as “failed”.

On to “MAPLPLAVIVYEPGDVLEEILAAARDRLVGLPDVRIAGLVPRLGPRHSNGRASFWLDDIVRGDSIALSQDLGPGSTSCILNADGLATARMRLAEAIAVRPDLVLFGRFAKEEIAGRGIREEIGLALAQDVPALVAVERAMLPGWIAFAAEGWTMLPADADAVVAWFVALAAERQSADTLEHHHHHH”, for which the protein production result is given as “failed”.

(Values after a protein production outcome set (Wang et al. 2014).)
